In patent US20180193496A1 (PHILOGEN S P A, published 2018):

T1: recombinant peptide consisting of amino acids 262-534 of tenascin-W (human, UniProt Q9UQP3 262-534)
T1 construct: also called recombinant tenascin-W peptide used to isolate the G10 antibody
T1 sequence: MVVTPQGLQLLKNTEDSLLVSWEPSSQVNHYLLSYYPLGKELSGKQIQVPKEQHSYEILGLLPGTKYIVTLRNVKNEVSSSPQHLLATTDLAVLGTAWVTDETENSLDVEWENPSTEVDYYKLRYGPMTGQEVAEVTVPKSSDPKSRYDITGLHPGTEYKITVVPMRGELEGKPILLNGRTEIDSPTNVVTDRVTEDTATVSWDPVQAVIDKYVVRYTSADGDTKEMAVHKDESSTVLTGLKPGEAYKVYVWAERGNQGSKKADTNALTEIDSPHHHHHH

B1: anti-human MMP3 antibody CH01 in scFv format (scFv, V domains shown)
VH: EVQLLESGGGLVQPGGSLRLSCAASGFTFSPYAMSWVRQAPGKGLEWVSAITGQGGVTYYADSVKGRFTISRDNSKNTLYLQMNSLRAEDTAVYYCAKISSFHFDYWGQGTLVTVSS
VL: EIVLTQSPGTLSLSPGERATLSCRASQSVSSHHLAWYQQKPGQAPRLLIYDASSRATGIPDRFSGSGSGTDFTLTISRLEPEDFAVYYCQQPRGAPTTFGQGTKVEIK
notes: The scFv is myc-tagged (detected with anti-myc 9E10); also called scFv(CH01)
B2: antibody G10 in scFv format (scFv, V domains shown)
VH: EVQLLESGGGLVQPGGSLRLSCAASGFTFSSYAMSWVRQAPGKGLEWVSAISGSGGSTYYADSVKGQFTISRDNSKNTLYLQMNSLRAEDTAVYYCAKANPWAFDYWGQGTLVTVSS
VL: SELTQDPAVSVALGQTVRITCQGDSLRSYYASWYQQKPGQAPVLVIYGKNNRPSGIPDRFSGSSSGNTASLTITGAQAEDEADYYCNSSGSQRSPVVFGGGTKLTVL
notes: The monomeric fraction was used in Biacore

Experiments:
[1] = biological target: T2, catalytic domain of human MMP3 (amino acids 100-273), recombinant (human, UniProt P08254 100-273, biotinylated (in the ELISA)); assay: ELISA on biotinylated catalytic domain, scFv
T2 construct: range 100-273; also called HsMMP3; human MMP3 catalytic domain

[2] = biological target: T1, recombinant peptide consisting of amino …; assay: Biacore, tenascin-W 262-534 on a CM-5 chip, scFv
Description: A monomeric fraction of the purified G10 antibody was analyzed by surface plasmon resonance (BIAcore, 3000 system). A recombinant peptide consisting of amino acids 262-534 of tenascin-W was covalently coupled to the surface of the CM-5 sensor Chip. Twenty-five microliters of each sample were injected at the flow rate of 10 μL/min. The regeneration of the chip was performed with 5 μL of 10 mM glycine-HCl, pH 2.5 (GE Healthcare).

T2 sequence (P08254 100-273 limits assumed): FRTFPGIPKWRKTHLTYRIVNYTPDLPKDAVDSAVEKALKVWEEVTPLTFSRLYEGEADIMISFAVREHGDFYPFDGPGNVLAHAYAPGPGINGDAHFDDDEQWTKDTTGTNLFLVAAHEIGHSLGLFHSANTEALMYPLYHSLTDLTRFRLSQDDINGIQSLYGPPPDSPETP

Binder	binding result [1]	binding result [2]
B1	binds	
B2		binds
